Source: patent US20210130436A1 (published 2021)
One block for each binder: values may come before it.

Experiments:
[1] = target: T1, human PD-L1, full length, expressed on transfected HEK293 cells (human, UniProt Q9NZQ7 19-290); experiment: flow cytometry, HEK293 cells transfected with human PD-L1
T1 construct: Full-length surface expression construct from Genscript; also called CD274; B7-H1

[2] = target: T2, human PD-L1, full-length, on transduced CHO cells (human, UniProt Q9NZQ7 19-290); experiment: flow cytometry MFI on CHO/huPD-L1 relative to WT CD80 ECD-Fc (R&D)
T2 construct: Full-length surface expression construct transduced into CHO cells by lentivirus; also called huPD-L1; CD274

[3] = target: T3, human CD28, endogenous on Jurkat/IL2 reporter cells (human, UniProt P10747 19-220); experiment: flow cytometry MFI on Jurkat (CD28) relative to WT CD80 ECD-Fc (R&D)
T3 construct: Endogenously expressed on Jurkat/IL2 reporter cells

[4] = target: T2, human PD-L1, full-length, on transduced …; experiment: flow cytometry; binding to CHO/huPD-L1 compared to binding to Jurkat (CD28)
[5] = target: T4, human CTLA-4, full-length, on transduced CHO cells (human, UniProt P16410 36-223); experiment: flow cytometry MFI on CHO/huCTLA4 relative to WT CD80 ECD-Fc (R&D)
T4 construct: Full-length surface expression construct transduced into CHO cells by lentivirus; also called huCTLA4

PD-1-Fc = target: T5, PD-1-Fc (UniProt Q15116 25-167); experiment: ForteBio (BLI), PD-1-Fc
T5 construct: not shown: Fc not described

[6] = target: T6, human CD28, full length, expressed on transfected HEK293 cells (human, UniProt P10747 19-220); experiment: flow cytometry, HEK293 cells transfected with human CD28
T6 construct: Full-length surface expression construct from Genscript

[7] = target: T7, human PD-L1, expressed on cells (human, UniProt Q9NZQ7 19-290); experiment: flow cytometry on CHO/PD-L1 cells, then fluorescently conjugated PD-1-Fc (FIG. 9D)
T7 construct: On CHO/PD-L1, K562/OKT3/PD-L1 and CHO/OKT3/PD-L1 aAPC, huPD-L1-transduced MC38 cells, or primary human monocytes; also called huPD-L1; hPD-L1

TIGIT = target: T8, TIGIT (Homo sapiens (Human), UniProt Q495A1 23-244); experiment: flow cytometry, TIGIT-transfected Expi293 cells
T8 construct: Expressed on transfected Expi293 cells; also called TIGIT tfxn
T8 sequence: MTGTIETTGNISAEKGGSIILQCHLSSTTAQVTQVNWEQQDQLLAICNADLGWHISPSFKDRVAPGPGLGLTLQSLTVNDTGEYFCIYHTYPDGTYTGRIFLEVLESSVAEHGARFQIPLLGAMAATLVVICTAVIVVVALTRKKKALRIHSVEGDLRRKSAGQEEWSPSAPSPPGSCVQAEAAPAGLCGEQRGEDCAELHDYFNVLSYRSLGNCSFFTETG

CD226 = target: T9, CD226 (Homo sapiens (Human), UniProt Q15762 19-336); experiment: flow cytometry, CD226-transfected Expi293 cells
T9 construct: Expressed on transfected cells
T9 sequence: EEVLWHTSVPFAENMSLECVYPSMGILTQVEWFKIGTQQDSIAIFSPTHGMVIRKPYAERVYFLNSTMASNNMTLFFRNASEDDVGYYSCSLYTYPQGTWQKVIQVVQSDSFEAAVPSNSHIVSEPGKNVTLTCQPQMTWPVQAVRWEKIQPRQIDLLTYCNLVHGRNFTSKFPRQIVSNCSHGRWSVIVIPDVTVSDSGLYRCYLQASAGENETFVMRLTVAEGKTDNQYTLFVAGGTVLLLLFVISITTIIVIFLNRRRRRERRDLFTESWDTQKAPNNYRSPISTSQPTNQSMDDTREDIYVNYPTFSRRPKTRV

CD96 = target: T10, CD96 (UniProt P40200 22-585, limits assumed); experiment: flow cytometry on cells expressing CD96
T10 construct: whole, on cells
T10 sequence (looked up): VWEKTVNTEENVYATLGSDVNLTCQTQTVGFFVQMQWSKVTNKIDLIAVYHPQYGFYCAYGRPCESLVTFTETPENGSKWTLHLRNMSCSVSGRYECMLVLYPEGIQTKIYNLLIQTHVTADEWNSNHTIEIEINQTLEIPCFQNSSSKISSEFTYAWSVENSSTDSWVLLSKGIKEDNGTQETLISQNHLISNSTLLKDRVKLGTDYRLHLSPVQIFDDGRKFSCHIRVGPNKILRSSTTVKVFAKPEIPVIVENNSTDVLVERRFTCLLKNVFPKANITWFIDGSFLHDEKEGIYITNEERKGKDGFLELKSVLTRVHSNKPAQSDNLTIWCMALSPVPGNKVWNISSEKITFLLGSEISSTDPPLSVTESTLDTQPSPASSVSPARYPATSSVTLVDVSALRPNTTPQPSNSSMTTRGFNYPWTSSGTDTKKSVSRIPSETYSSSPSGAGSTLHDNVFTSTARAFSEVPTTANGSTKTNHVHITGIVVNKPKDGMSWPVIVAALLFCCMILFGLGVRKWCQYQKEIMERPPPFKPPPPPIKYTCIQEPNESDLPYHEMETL

T2 sequence (Q9NZQ7 19-290): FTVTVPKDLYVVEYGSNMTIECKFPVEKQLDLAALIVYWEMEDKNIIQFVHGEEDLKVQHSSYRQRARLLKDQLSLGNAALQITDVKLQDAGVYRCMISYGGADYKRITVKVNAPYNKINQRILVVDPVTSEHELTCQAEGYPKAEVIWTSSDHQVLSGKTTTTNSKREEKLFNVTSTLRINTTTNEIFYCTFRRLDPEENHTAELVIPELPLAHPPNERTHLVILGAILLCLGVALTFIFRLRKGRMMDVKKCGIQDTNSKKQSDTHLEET
T5 sequence (Q15116 25-167): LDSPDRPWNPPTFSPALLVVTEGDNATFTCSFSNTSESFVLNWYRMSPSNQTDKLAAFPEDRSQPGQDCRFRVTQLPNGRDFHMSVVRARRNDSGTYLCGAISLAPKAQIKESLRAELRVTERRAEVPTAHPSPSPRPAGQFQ
T4 sequence (P16410 36-223): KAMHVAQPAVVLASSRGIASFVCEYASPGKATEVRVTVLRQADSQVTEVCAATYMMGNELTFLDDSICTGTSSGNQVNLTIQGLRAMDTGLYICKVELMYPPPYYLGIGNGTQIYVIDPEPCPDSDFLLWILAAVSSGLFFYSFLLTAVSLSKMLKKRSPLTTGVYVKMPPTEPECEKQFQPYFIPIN
T1 sequence (Q9NZQ7 19-290): as the sequence (Q9NZQ7 19-290) above
T7 sequence (Q9NZQ7 19-290): as above

B2: variant CD80 IgV-Fc E35D/M47V/A71G (Fc fusion, not shown: a dimerising Fc or GST)
chain: VIHVTKEVKEVATLSCGHNVSVEELAQTRIYWQKDKKMVLTMMSGDVNIWPEYKNRTIFDITNNLSIVILGLRPSDEGTYECVVLKYEKDAFKREHLAEVTLSVKAD
Fold change to WT CD80 [2]: 3.05 fold
Fold change to WT CD80 [3]: 0.35 fold
Ratio of PDL1:CD28 [4]: 6 ratio
Fold change to WT CD80 [5]: 1.44 fold

B3: PD-L2 V89D IgV-Fc (Fc fusion, not shown: a dimerising Fc or GST)
chain: LFTVTVPKELYIIEHGSNVTLECNFDTGSHVNLGAITASLQKVENDTSPHRERATLLEEQLPLGKASFHIPQVQVRDEGQYQCIIIYGDAWDYKYLTLKVKA
Response Units (PD-1-Fc): 0.005 Response Units

B4: WT CD80 ECD-Fc (inert) (Fc fusion, not shown: a dimerising Fc or GST)
chain: VIHVTKEVKEVATLSCGHNVSVEELAQTRIYWQKEKKMVLTMMSGDMNIWPEYKNRTIFDITNNLSIVILALRPSDEGTYECVVLKYEKDAFKREHLAEVTLSVKADFPTPSISDFEIPTSNIRRIICSTSGGFPEPHLSWLENGEELNAINTTVSQDPETELYAVSSKLDFNMTTNHSFMCLIKYGHLRVNQTFNWNTTKQEHFPDN
notes: also called wild-type CD80-ECD-Fc (inert)
MFI at 66.6 nM [6]: 3070 MFI

B5: CD80 variant H18Y/V22A/E35D/M47V/T62S/A71G IgV (SEQ ID NO: 2275)-Fc (inert) (Fc fusion, not shown: small tags and cut ends)
chain: VIHVTKEVKEVATLSCGYNVSAEELAQTRIYWQKDKKMVLTMMSGDVNIWPEYKNRTIFDISNNLSIVILGLRPSDEGTYECVVLKYEKDAFKREHLAEVTLSVKADEPKSSDKTHTCPPCPAPEAEGAPSVFLFPPKPKDTLMISRTPEVTCVVVDVSHEDPEVKFNWYVDGVEVHNAKTKPREEQYNSTYRVVSVLTVLHQDWLNGKEYKCKVSNKALPAPIEKTISKAKGQPREPQVYTLPPSREEMTKNQVSLTCLVKGFYPSDIAVEWESNGQPENNYKTTPPVLDSDGSFFLYSKLTVDKSRWQQGNVFSCSVMHEALHNHYTQKSLSLSPG
notes: also called H18Y/V22A/E35D/M47V/T62S/A71G CD80 IgV-Fc; CD80 vIgD-Fc
binding result [7]: binds

B7: CD112 Y33H/N47K/Q79R/N106Y/A112V IgV-Fc (Fc fusion, not shown: a dimerising Fc or GST)
chain: QDVRVQVLPEVRGQLGGTVELPCHLLPPVPGLHISLVTWQRPDAPAKHQNVAAFHPKMGPSFPSPKPGSERLSFVSAKRSTGQDTEAELQDATLALHGLTVEDEGYYTCEFVTFPKGSVRGMTWLRV
MFI at 100 nM (CD96): 1680 MFI

More lines, now with the values ahead:

MFI at 22.2 nM [1]: 1580 MFI
B1: variant CD80 IgV-Fc E35G/K54E/A71D/L72P (Fc fusion)
chain: VIHVTKEVKEVATLSCGHNVSVEELAQTRIYWQKGKKMVLTMMSGDMNIWPEYENRTIFDITNNLSIVILDPRPSDEGTYECVVLKYEKDAFKREHLAEVTLSVKAD
notes: not shown: which one is

MFI (TIGIT): 2920 MFI
MFI (CD226): 2000 MFI
B6: variant CD112 IgV-Fc S118Y (Fc fusion)
chain: QDVRVQVLPEVRGQLGGTVELPCHLLPPVPGLYISLVTWQRPDAPANHQNVAAFHPKMGPSFPSPKPGSERLSFVSAKQSTGQDTEAELQDATLALHGLTVEDEGNYTCEFATFPKGYVRGMTWLRV
notes: IgV-Fc fusion; not shown: linker and Fc
